{"source": "paper PMC4950607", "tested_on": "RsmA (His6-Thb-RsmA) (Pseudomonas aeruginosa)", "assay": "EMSA", "conditions": "17 nt 3' extension hybridized to DNA primer"}
{"substance": "RsmW sRNA, 3'-extended, labeled", "values": [{"measurement": "Kd", "result": 0.0115, "unit": "µM"}]}
